Test results from patent US7943731, “Dimerizing peptides” (Massachusetts Institute of Technology).

How the values were obtained:
[1] = molecular target: T1, fusion peptide 6-Zif12 (synthetic 15-mer + Zif268, UniProt P08046 P08046:335-391); assay: EMSA; little or no activity with single site; conditions: tags: N-terminal Met-Ala, leader peptide; chain copies: 2 stated; label: 32P end-label (Klenow)
Protocol: (§1) Figure 4B: FIG. 4(A) Sequences of peptide extensions (SEQ ID NOS: 24-29) isolated from the initial selection. Numbers in parentheses give the frequency of occurrences among the 45 clones sequenced. The clones for peptide 2 included a Glu-21-to-Asp mutation in the zinc finger region that may have been partially responsible for the affinity of this peptide. (B) Gel mobility-shift assays using purified fusion peptides 1, 3, and 5. Protein (2.5 µM, 250 nM, 25 nM, 250 pM, and no protein) was incubated with DNA containing either an inverted repeat of Zif12 sites or a single Zif12 site and then electrophoresed through native polyacrylamide gels. The reduced mobility of the inverted repeat probe in the presence of protein indicates the formation of protein-DNA complexes. Similar results were obtained with fusion peptides 2 and 6. Binding of peptide 4 depend on disulfide bond formation.
(§2) To assess their DNA-binding activity, peptides obtained in these initial selections were expressed in *Escherichia coli* (as fusions with Zif12), purified, and tested in gel mobility-shift assays (FIG. 4B). These fusion peptides bound specifically to duplex DNA containing an inverted repeat of the Zif12 sites, showing little or no activity with DNA containing a single site. The complexes with the inverted-repeat site all migrated similarly in the gel, with a mobility for the complexes that was consistent with the formation of dimers.

[2] = molecular target: T2, fusion peptide 1-Zif12 (synthetic 15-mer + Zif268, UniProt P08046 P08046:335-391); assay: EMSA; little or no activity with single site; conditions: tags: N-terminal Met-Ala, leader peptide; chain copies: 2 stated; label: 32P end-label (Klenow)
Protocol: as §1, §2

[3] = molecular target: T3, fusion peptide 5-Zif12 (synthetic 15-mer + Zif268, UniProt P08046 P08046:335-391); assay: EMSA; little or no activity with single site; conditions: tags: N-terminal Met-Ala, leader peptide; chain copies: 2 stated; label: 32P end-label (Klenow)
Protocol: as §1, §2

[4] = molecular target: T4, fusion peptide 3-Zif12 (synthetic 15-mer + Zif268, UniProt P08046 P08046:335-391); assay: EMSA; little or no activity with single site; conditions: tags: N-terminal Met-Ala, leader peptide; chain copies: 2 stated; label: 32P end-label (Klenow)
Protocol: as §1, §2

[5] = molecular target: Zif12 (fingers 1-2 of Zif268) (UniProt P08046 P08046:333-390); assay: EMSA; no shift under these conditions; conditions: tags: Gly-Ser dipeptide left at N terminus after GST removal; chain copies: 2 inferred (essentially noncooperative, one per half-site); label: 32P end-label (Klenow)
Protocol: as §1
as §2, with “The complexes with the inverted-repeat site all migrated similarly in the gel, with a mobility for the complexes that was consistent with the formation of dimers.” left out

[6] = molecular target: T1, fusion peptide 6-Zif12; assay: EMSA; similar results to peptides 1, 3, 5; conditions: tags: N-terminal Met-Ala, leader peptide; chain copies: 2 stated; label: 32P end-label (Klenow)
Protocol: as §1
as §2, with “The complexes with the inverted-repeat site all migrated similarly in the gel, with a mobility for the complexes that was consistent with the formation of dimers.” left out

[7] = molecular target: T2, fusion peptide 1-Zif12; assay: EMSA; up to 2.5 uM protein; conditions: tags: N-terminal Met-Ala, leader peptide; chain copies: 2 stated; label: 32P end-label (Klenow)
Protocol: as §1, §2

[8] = molecular target: T3, fusion peptide 5-Zif12; assay: EMSA; up to 2.5 uM protein; conditions: tags: N-terminal Met-Ala, leader peptide; chain copies: 2 stated; label: 32P end-label (Klenow)
Protocol: as §1, §2

[9] = molecular target: T4, fusion peptide 3-Zif12; assay: EMSA; up to 2.5 uM protein; conditions: tags: N-terminal Met-Ala, leader peptide; chain copies: 2 stated; label: 32P end-label (Klenow)
Protocol: as §1, §2

Zif12 (fingers 1-2 of Zif268), sequence (P08046 333-390, one chain of several): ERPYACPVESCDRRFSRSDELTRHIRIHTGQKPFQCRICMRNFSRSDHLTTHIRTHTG
T2 sequence (P08046 335-391, one chain of several): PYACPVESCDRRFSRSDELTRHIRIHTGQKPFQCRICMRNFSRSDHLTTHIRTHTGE
T4 sequence (P08046 335-391, one chain of several): as above
T1 sequence (P08046 335-391, one chain of several): as above
T3 sequence (P08046 335-391, one chain of several): as above

Binder	binding result [1]	binding result [2]	binding result [3]	binding result [4]	binding result [5]	binding result [6]	binding result [7]	binding result [8]	binding result [9]
single Zif12 site mutant duplex (dsDNA, [none]) DNA 1: GGTTGCAGTGGGCGTATGCTCAGTACTTGAACGTAACG DNA 2: CGTTACGTTCAAGTACTGAGCATACGCCCACTGCAACC	no binding	no binding	no binding	no binding	no binding	–	–	–	–
phage-selection target duplex, inverted repeat (dsDNA) DNA 1: GGTTGCAGTGGGCGCGCCCACAGTACTTGAACGTAACG DNA 2: CGTTACGTTCAAGTACTGTGGGCGCGCCCACTGCAACC	–	–	–	–	no binding	binds	binds	binds	binds
